Test results as given in patent US6045793, “Recombinant ribonuclease proteins” (dated 2000).

Experiments:
Test in all cases: cell-based or functional assay
[1] = biological target: T1, Native ONCONASE (Rana pipiens, pyroglutamyl amino acid residue (<Glu-1) at the amino terminus)
T1 chain: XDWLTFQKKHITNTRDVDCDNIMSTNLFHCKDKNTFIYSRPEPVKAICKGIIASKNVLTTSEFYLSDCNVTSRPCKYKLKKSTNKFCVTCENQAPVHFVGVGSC

[2] = biological target: T2, recombinant human eosinophil-derived neurotoxin (human)
T2 chain: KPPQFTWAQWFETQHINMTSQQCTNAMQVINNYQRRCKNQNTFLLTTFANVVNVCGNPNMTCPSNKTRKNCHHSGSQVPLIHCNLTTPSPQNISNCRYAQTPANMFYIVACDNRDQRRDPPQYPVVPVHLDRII

[3] = biological target: T3, [Met-(-1)]rOnc (Rana pipiens)
T3 chain: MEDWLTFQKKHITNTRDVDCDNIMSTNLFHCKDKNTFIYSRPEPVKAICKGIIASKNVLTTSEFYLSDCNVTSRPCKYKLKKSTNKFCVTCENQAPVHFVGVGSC

[4] = biological target: T4, rEDN(1-21) rOnc (human; Rana pipiens)
T4 chain: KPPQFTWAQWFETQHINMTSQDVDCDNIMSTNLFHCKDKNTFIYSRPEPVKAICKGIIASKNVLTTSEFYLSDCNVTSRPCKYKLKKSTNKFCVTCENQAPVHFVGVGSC

[5] = biological target: T5, rEDN(1-21) rOncG26 (human EDN part, Rana pipiens Onc part)
T5 chain: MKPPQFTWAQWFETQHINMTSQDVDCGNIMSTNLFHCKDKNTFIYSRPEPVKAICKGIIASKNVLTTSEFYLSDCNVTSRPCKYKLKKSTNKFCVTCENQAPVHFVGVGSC

[6] = biological target: transferrin receptor on SF539 human glioma cells (human, UniProt P02786)

B1: Placental ribonuclease inhibitor (other)
chain: SLDIQSLDIQCEELSDARWAELLPLLQQCQVVRLDDCGLTEARCKDISSALRVNPALAELNLRSNELGDVGVHCVLQGLQTPSCKIQKLSLQNCCLTGAGCGVLSSTLRTLPTLQELHLSDNLLGDAGLQLLCEGLLDPQCRLEKLQLEYCSLSAASCEPLASVLRAKPDFKELTVSNNDINEAGVRVLCQGLKDSPCQLEALKLESCGVTSDNCRDLCGIVASKASLRELALGSNKLGDVGMAELCPGLLHPSSRLRTLWIWECGITAKGCGDLCRVLRAKESLKELSLAGNELGDEGARLLCETLLEPGCQLESLWVKSCSFTAACCSHFSSVLAQNRFLLELQISNNRLEDAGVRELCQGLGQPGSVLRVLWLADCDVSDSSCSSLAATLLANHSLRELDLSNNCLGDAGILQLVESVRQPGCLLEQLVLYDIYWSEEMEDRLQALEKDKPSLRVIS
With B1 the “Fold Difference of IC50 (ng/ml) in rabbit reticulocyte lysate, (+)PRI against (-)PRI” value (“Fold Difference of IC50 (ng/ml)” for short) [1] was 1.2 fold, the “IC50 (ng/ml) of the RNase for inhibition of protein synthesis in rabbit reticulocyte lysate, (+)PRI” value [1] was 0.24 ng/mL and the “Fold Difference of IC50 (ng/ml)” value [2] was > 30.7 fold. The “Fold Difference of IC50 (ng/ml)” value [3] was 1.4 fold, the “IC50 (ng/ml) of the RNase for inhibition of protein synthesis in rabbit reticulocyte lysate, (+)PRI” value [3] was 140 ng/mL and the “Fold Difference of IC50 (ng/ml)” value [4] was 2 fold. The “IC50 (ng/ml) of the RNase for inhibition of protein synthesis in rabbit reticulocyte lysate, (+)PRI” value [4] was 3200 ng/mL, the “Fold Difference of IC50 (ng/ml)” value [5] was 21 fold and the “IC50 (ng/ml) of the RNase for inhibition of protein synthesis in rabbit reticulocyte lysate, (+)PRI” value [5] was 600 ng/mL.

B2: [Met-(-1)Glu]rOncFBE6 (scFv)
chain: MEDWLTFQKKHITNTRDVDCDNIMSTNLFHCKDKNTFIYSRPEPVKAICKGIIASKNVLTTSEFYLSDCNVTSRPCKYKLKKSTNKFCVTCENQAPVHFVGVGSCAKKLNDAQAPKSDDIKMTQSPSSMYASLGERVTFTCKASQDINNYLCWFQQKPGKSPKTLIYRANRLVDGVPSRFSGSGSGQDYSLTISSLEYEDMGIYYCLQYDEFPYTFGGGTKLEIKGGGGSGGGGSGGGGSEVQLQQSGTVLARPGASVKMSCKASGYTFSSYWMHWIKQRPGQGLDWIVAIDPRNSDTIYNPQFKHKAKLTAVTSTSTAYMELNSLTNEDSAVYYCTPLYYFDSWGQGTTLTVSSHHH
With B2 the “IC50 (nM), inhibition of protein synthesis in SF539 human glioma cells” value [6] was 0.5 nM.

B3: E6FB[Met-(-1)Ser]rOnc (scFv)
chain: DIKMTQSPSSMYASLGERVTFTCKASQDINNYLCWFQQKPGKSPKTLIYRANRLVDGVPSRFSGSGSGQDYSLTISSLEYEDMGIYYCLQYDEFPYTFGGGTKLEIKGGGGSGGGGSGGGGSEVQLQQSGTVLARPGASVKMSCKASGYTFSSYWMHWIKQRPGQGLDWIVAIDPRNSDTIYNPQFKHKAKLTAVTSTSTAYMELNSLTNEDSAVYYCTPLYYFDSWGQGTTLTVSSAKKLNDAQAPKSDMSDWLTFQKKHITNTRDVDCDNIMSTNLFHCKDKNTFIYSRPEPVKAICKGIIASKNVLTTSEFYLSDCNVTSRPCKYKLKKSTNKFCVTCENQAPVHFVGVGSC
With B3 the “IC50 (nM), inhibition of protein synthesis in SF539 human glioma cells” value [6] was 0.22 nM.
